Experimental data: patent US20090275105A1, “PROCESS FOR THE PRODUCTION OF BROMELAIN BY MEANS OF SUBSTANCES THAT INDUCE PROTEINS IN PINEAPPLE PLANTS” (priority 2006, published 2009)

Legend:
[1] = Comparison of the specific activity of bromelain obtained from different methods; format: biochemical, Ananas comosus; conditions: 30 mg/ml protein sample; inducers: 15 days from induction
Experimental: The plantlets grown in vitro in different culture mediums indicated in this invention were taken and rinsed in running water to remove the Induction SS medium. 330 g of plants were weighed, placed in an extractor to be ground and 200 ml of juice was obtained (first extraction) that was stored at a temperature of 4° C. 670 ml of extraction buffer (monobasic potassium phosphate and dibasic potassium phosphate) is added to the pulp obtained from the extraction at a pH of 6.1 and a concentration of 0.05M; this is allowed to repose for 20 minutes in order to afterwards collect the enzyme and pass it through an extractor and thus obtain the second juice. The following step is to mix and homogenize the juice from the first extraction with the second extraction for 1 minute at 2000 rpm and to then centrifuge at 10000 rpm for 20 min. at 4° C., to afterwards recover the supernatant with a volume of approximately 800 ml which is frozen at −80° C. and lyophilized (10% of solids) for its preservation. The extraction procedure is applied for all the treatments of which the amount of protein present is determined (Bradford) expressing the protein per ml of extract in mg. A standard curve is used for the protein tests. The standard used was bovine serum albumin at 0.20-1.0 mg/ml. Based on the results, the following specific activities were obtained compared with imported commercial bromelain and bromelain induced from in vitro plants.

[2] = cited from earlier work
[3] = bromelain obtained from stems; cited from earlier work
[4] = fractioning with ammonium sulfate; cited from earlier work
[5] = system: pineapple plants (Ananas comosus); assay: Specific enzyme activity of raw extract from pineapple plantlets induced in vitro (Dapeau method); format: in vivo; conditions: sacarose 30-90 g/L as inducer
Experimental: In order to perform the evaluation of the inducers, a factor design was carried out of 3×3×3 with three inducers at three different concentrations and three monitoring times (Chart 4), for each treatment The evaluations are carried out using the inducers separately or in combination giving a total of […]. […] The induction was begun with the selection of the sprouts previously established in vitro with a size of 2 cm and an average of 3 leaves and weighing 120 mg. […] Once the inducers are added to the modified SS, it is sterilized at 121° C., at a pressure of 1.2 kg/cm^2 for 20 minutes. In the treatments that contain salicylic acid, the modified SS medium is first sterilized and later the acid is added, which was sterilized through filtration, under aseptic conditions in a laminar flow hood. Here it is advisable to add the acid to the medium before it is cooled to achieve the homogenization of the inducer with the medium before it is solidified. The sprouts are planted under aseptic conditions in 460 ml flasks that contain 30 ml of the Induction SS, said flasks are closed and sealed with clear tape in order to avoid any filtering of air and with the air, contamination of same. The treatments are moved to a growth room under controlled conditions at 27±2° C. and a photoperiod of 16 hr/light and 8 hr/darkness for a period of 7, 15, 30 and 45 days. […]

[Cl-].[Na+] [NaCl, sodium chloride]
Specific activity (U/mg^−1 protein) [1]: 4.98 U/mg^−1 protein

O=C(O)c1ccccc1O [Salicylic acid]
Specific activity (U/mg^−1 protein) [1]: 3.17 U/mg^−1 protein

Bromelain
Stability in solutions of 25% methanol (v/v) ([2]; 25° C. for 20 min): stable
loss of activity when the enzymatic solution is heated ([2]; 55° C. for 20 min at pH 6): 50%
Optimal pH ([2]; Inagami and Murachi, 1963): approximately 7
loss in activity caused by lyophilization ([2]; Murachi et al., 1964): 27%
Isoelectric Point p1 [3]: 9.55
proteolytic activity [4]: 1.64 U/mg^−1

OC[C@H]1O[C@@](CO)(O[C@H]2O[C@H](CO)[C@@H](O)[C@H](O)[C@H]2O)[C@@H](O)[C@@H]1O [Sacarose]
specific activity in induction tests, comparison of inducers [5]: greater specific activity
Specific activity (U/mg^−1 protein) [1]: 635 U/mg^−1 protein
